# Earlier results as cited in patent US20020019334A1, “Nutritional intervention composition for enhancing and extending satiety” (priority 2000, published 2002).
# Conditions: injection, humans
molecule,measurement,value
"Cholecystokinin (peptide, UniProt P06307 21-115, looked up, Cholecystokinin) Cholecystokinin: QPVPPADPAGSGLQRAEEAPRRQLRVSQRTDGESRAHLGALLARYIQQARKAPSGRMSIVKNLQNLDPSHRISDRDYMGWMDFGRRSAEEYEYPS",decrease of food intake,16%
